Source: patent US7977459 (TOUDAI TLO, dated 2011)
Values joined by “and” are separate entries in the source; they are usually repeats but may differ in a detail not shown here. Identical values can stand only once.

T1: mouse AdipoR1 (mouse adiponectin receptor 1) (mouse, UniProt Q91VH1 1-375)
T1 construct: also called mAdipoR1
T1 sequence: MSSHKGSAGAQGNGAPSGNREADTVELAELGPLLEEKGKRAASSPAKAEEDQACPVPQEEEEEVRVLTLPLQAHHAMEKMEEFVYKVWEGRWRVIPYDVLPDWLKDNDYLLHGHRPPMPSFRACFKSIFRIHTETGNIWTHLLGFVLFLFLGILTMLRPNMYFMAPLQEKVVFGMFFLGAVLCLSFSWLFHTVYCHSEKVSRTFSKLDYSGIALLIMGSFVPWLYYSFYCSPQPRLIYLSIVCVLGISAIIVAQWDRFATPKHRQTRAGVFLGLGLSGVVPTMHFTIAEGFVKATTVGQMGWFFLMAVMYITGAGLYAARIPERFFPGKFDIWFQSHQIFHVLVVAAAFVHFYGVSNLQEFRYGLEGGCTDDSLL

T2: mouse AdipoR2 (mouse adiponectin receptor 2) (mouse, UniProt Q8BQS5 76-386)
T2 construct: also called mAdipoR2
T2 sequence: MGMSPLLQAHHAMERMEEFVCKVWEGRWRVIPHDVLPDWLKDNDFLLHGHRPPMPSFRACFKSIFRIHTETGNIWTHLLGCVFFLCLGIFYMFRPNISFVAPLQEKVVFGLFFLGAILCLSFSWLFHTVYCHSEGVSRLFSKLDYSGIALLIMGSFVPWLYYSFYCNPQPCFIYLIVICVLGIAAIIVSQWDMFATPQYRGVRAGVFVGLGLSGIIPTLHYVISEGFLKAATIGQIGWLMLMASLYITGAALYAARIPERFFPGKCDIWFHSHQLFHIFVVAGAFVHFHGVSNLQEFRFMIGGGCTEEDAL


Key:
[1] = target: T1, mouse AdipoR1 (mouse adiponectin …); experiment: Scatchard analysis of [125I] gAd binding to C2C12 myocytes; high affinity sites, tied to AdipoR1 because AdipoR1 siRNA abrogated them
[2] = target: T2, mouse AdipoR2 (mouse adiponectin …); experiment: Scatchard analysis of [125I] gAd binding to C2C12 myocytes; intermediate affinity sites, tied to AdipoR2 because AdipoR2 siRNA abrogated them
[3] = target: T2, mouse AdipoR2 (mouse adiponectin …); experiment: Scatchard analysis of [125I] Ad binding to C2C12 myocytes; intermediate affinity sites, tied to AdipoR2 because AdipoR2 siRNA abrogated them

Binder | Kd [1] | Kd [2] | Kd [3]
adiponectin consisting solely of the globular domain (globular Adipo) (ligand, mouse, UniProt Q60994 104-247, looked up, 125I-labeled at Tyr in the radioligand binding assay; biotinylated with NHS-LC-Biotin or conjugated with FITC in the FACS experiments, domain: globular domain; also called gAd; globular adiponectin) KGEPGEAAYVYRSAFSVGLETRVTVPNVPIRFTKIFYNQQNHYDGSTGKFYCNIPGLYYFSYHITVYMKDVKVSLFKKDKAVLFTYDQYQEKNVDQASGSVLLHLEVGDQVWLQVYGDGDHNGLYADNVNDSTFTGFLLYHDTN | ~0.06 µg/mL and ~1.14 nM | ~0.8 µg/mL and ~14.4 nM | –
full-length adiponectin (full-length Adipo) (ligand, mouse, UniProt Q60994 18-247, looked up, 125I-labeled at Tyr in the radioligand binding assay, also called [125I] full-length Adipo) EDDVTTTEELAPALVPPPKGTCAGWMAGIPGHPGHNGTPGRDGRDGTPGEKGEKGDAGLLGPKGETGDVGMTGAEGPRGFPGTPGRKGEPGEAAYVYRSAFSVGLETRVTVPNVPIRFTKIFYNQQNHYDGSTGKFYCNIPGLYYFSYHITVYMKDVKVSLFKKDKAVLFTYDQYQEKNVDQASGSVLLHLEVGDQVWLQVYGDGDHNGLYADNVNDSTFTGFLLYHDTN | – | – | ~6.7 µg/mL and ~49.1 nM
